US20220202901A1, “PEPTIDES IN COMBINATION WITH IMMUNE CHECKPOINT INHIBITORS FOR USE IN TREATMENT OF CANCER” (WNTRESEARCH AB, priority 2019, published 2022)

Key:
HCC1954 cells = assay: Functional immune response assay: PBMC cytotoxicity against HCC1954 cells; format: cell-based
Protocol: (§1) Purpose: Examining the cytotoxic effect of Foxy-5 and an anti-PD-L1 antibody alone or in combination in a functional immune response assay with different breast cancer cell lines.
(§2) Peripheral blood mononuclear cells (PBMCs) were isolated from whole blood using Ficoll Paque based density centrifugation.
(§3) SKBR3 (low in PD L1, denoted PD L1+) or HCC1954 (high in PD L1, denoted PD L1+++) cells were stained with 0.1 mM CFSE.
(§4) Effector cells (EC), i.e. PMMCs and target cells (TC), i.e. SKBR3 or HCC1954 cells, respectively, were brought to a concentration of 2×10^5 cells/ml.
(§5) Cells were treated with and without Foxy5 (100 μM), the cells were also treated with and without pembrolizumab […].
(§6) Cells were plated at EC:TC ratios of 1:1 (first bar), 5:1 (second bar) and 10:1 (third bar) along with basal cell death controls and total cell death controls. Once plated, cells were spun down and incubated for 12 hours. After 12 hours cells were re suspended with 5 μg/ml 7AAD. Cells were then analysed on the Guava flow cytometer.
(§7) Based on staining patterns live/dead cell and immune/cancer cell differentiation can be determined and the direct cytotoxicity in terms of the cell death percentage was calculated.
Direct cytotoxicity elicited by PBMCs against the HCC1954 cell line in the presence of FOXY-5 and/or pembrolizumab relative to vehicle control. […]

SKBR3 cells = assay: Functional immune response assay: PBMC cytotoxicity against SKBR3 cells; format: cell-based; conditions: SKBR3, relative to vehicle control
Protocol: as §1, §2, §3, §4, §5, §6, §7
Direct cytotoxicity elicited by PBMCs against the SKBR3 cell line in the presence of FOXY-5 and/or pembrolizumab relative to vehicle control. […]

Pembrolizumab
direct PBMC cytotoxicity (HCC1954 cells; HCC1954 (PD L1 high), relative to vehicle control, EC:TC 5:1 and 10:1 ratios): increased | direct cytotoxicity (HCC1954 cells; HCC1954, pembrolizumab added to Foxy-5 vs. single agent, ratios 1:1 and 10:1): increased | trastuzumab mediated ADCC (SKBR3 cells; EC:TC 10:1 and 5:1 ratios): decreased | direct PBMC cytotoxicity (SKBR3 cells; EC:TC 10:1 ratio): increased
